Data published in US20230263863A1, “COMPOSITIONS HAVING NEUROREGENERATIVE APPLICATIONS” (GRIFOLS WORLDWIDE OPERATIONS LIMITED, priority 2020, published 2023).

System: SH-SY5Y cells
Assay: Neurite outgrowth (Outgrowth Fold Change) in undifferentiated SH-SY5Y cells
Type: cell-based, human
Conditions: for neurogenesis / differentiation (neurite outgrowth): all proteins 0.2 mg/mL
Protocol: Undifferentiated SH-SY5Y cells were seeded into 96 well clear bottom plates in media containing 0.1% FBS. A serum-free base media was utilized as recommended by the supplier for SH-SY5Y cells (Sigma, Cat #94030304-1VL). Twenty-four hours after seeding cells, a 3× stock solution of ApoTf, final concentrations indicated on the x-axis, in serum free base media was added to the cells. ApoTf was obtained and purified from pooled human plasma and dosed at a final concentration of 0.2 mg/mL. Cells were allowed to differentiate for 6 days. Neurite growth was assessed by imaging and image analysis. At the time of analysis, a 10× solution of Tubulin Tracker (Molecular Probes, T34075) and Hoechst 33342 (Molecular Probes #H3570) nuclear stain was prepared.
Briefly, Tubulin Tracker dissolved in DMSO was diluted 1:1 with Pluronic F-127 and further diluted into HBSS to generate a 10× solution. Hoechst 33342 was added to the HBSS-Tubulin Tracker solution at 10 μg/mL to generate a 10× nuclear stain. The 10× staining solution (10 μL) was added directly to treated assay wells and incubated at 37° C. for 30 minutes. Following incubation, 110 μL of 0.4% Trypan Blue was added directly to assay wells and imaged on a Molecular Devices Nano imaging instrument. Nine images/well were acquired in the blue (Nuclei) and green (Tubulin) fluorescent channels for each image.
After obtaining images, the MetaExpress Neurite Outgrowth analysis module (Molecular Devices) was used to identify cells, cell bodies, and quantify neurites. The total number of neurite branches were divided by the total number of cells imaged to account for different numbers of cells in each test well. The Outgrowth Fold Change was determined by setting the untreated control cells to a value of 1 with all other treatments shown relative to untreated control.

B1: BDNF: brain-derived neurotrophic factor; NGF superfamily; SEQ ID NO: 6 (protein, listed as Homo sapiens)
chain: MFHQVRRVMTILFLTMVISYFGCMKAAPMKEANIRGQGGLAYPGVRTHGTLESVNGPKAGSRGLTSLADTFEHVIEELLDEDQKVRPNEENNKDADLYTSRVMLSSQVPLEPPLLFLLEEYKNYLDAANMSMRVRRHSDPARRGELSVCDSISEWVTAADKKTAVDMSGGTVTVLEKVPVSKGQLKQYFYETKCNPMGYTKEGCRGIDKRHWNSQCRTTQSYVRALTMDSKKRIGWRFIRIDTSCVCTLTIKRGR
FIGS. 7A-7D, absence of ApoTf, BDNF 25 ng/mL, GDNF 1000 ng/mL, CNTF 250 ng/mL, PACAP 200 nM
  differentiation (neurite outgrowth), factor alone: differentiation was not induced

B2: apo-lactoferrin: structural and functional homologue of apo-transferrin, from Athens Research & Technology (protein, UniProt P02788 20-710, looked up)
Lactotransferrin: GRRRSVQWCAVSQPEATKCFQWQRNMRKVRGPPVSCIKRDSPIQCIQAIAENRADAVTLDGGFIYEAGLAPYKLRPVAAEVYGTERQPRTHYYAVAVVKKGGSFQLNELQGLKSCHTGLRRTAGWNVPIGTLRPFLNWTGPPEPIEAAVARFFSASCVPGADKGQFPNLCRLCAGTGENKCAFSSQEPYFSYSGAFKCLRDGAGDVAFIRESTVFEDLSDEAERDEYELLCPDNTRKPVDKFKDCHLARVPSHAVVARSVNGKEDAIWNLLRQAQEKFGKDKSPKFQLFGSPSGQKDLLFKDSAIGFSRVPPRIDSGLYLGSGYFTAIQNLRKSEEEVAARRARVVWCAVGEQELRKCNQWSGLSEGSVTCSSASTTEDCIALVLKGEADAMSLDGGYVYTAGKCGLVPVLAENYKSQQSSDPDPNCVDRPVEGYLAVAVVRRSDTSLTWNSVKGKKSCHTAVDRTAGWNIPMGLLFNQTGSCKFDEYFSQSCAPGSDPRSNLCALCIGDEQGENKCVPNSNERYYGYTGAFRCLAENAGDVAFVKDVTVLQNTDGNNNEAWAKDLKLADFALLCLDGKRKPVTEARSCHLAMAPNHAVVSRMDKVERLKQVLLHQQAKFGRNGSDCPDKFCLFQSETKNLLFNDNTECLARLHGKTTYEKYLGPQYVAGITNLKKCSTSPLLEACEFLRK
modifications: apo form
notes: structural and functional homologue of apo-transferrin, from Athens Research & Technology
FIG. 4
  neurogenesis / differentiation (neurite outgrowth): induced differentiation

B3: N-mut rec ApoTf: Y95F/Y188F transferrin N-lobe mutant protein, SEQ ID NO: 4, reduced iron-binding capacity (protein)
chain: VPDKTVRWCAVSEHEATKCQSFRDHMKSVIPSDGPSVACVKKASYLDCIRAIAANEADAVTLDAGLVYDAYLAPNNLKPVVAEFYGSKEDPQTFFYAVAVVKKDSGFQMNQLRGKKSCHTGLGRSAGWNIPIGLLYCDLPEPRKPLEKAVANFFSGSCAPCADGTDFPQLCQLCPGCGCSTLNQYFGFSGAFKCLKDGAGDVAFVKHSTIFENLANKADRDQYELLCLDNTRKPVDEYKDCHLAQVPSHTVVARSMGGKEDLIWELLNQAQEHFGKDKSKEFQLFSSPHGKDLLFKDSAHGFLKVPPRMDAKMYLGYEYVTAIRNLREGTCPEAPTDECKPVKWCALSHHERLKCDEWSVNSVGKIECVSAETTEDCIAKIMNGEADAMSLDGGFVYIAGKCGLVPVLAENYNKSDNCEDTPEAGYFAVAVVKKSASDLTWDNLKGKKSCHTAVGRTAGWNIPMGLLYNKINHCRFDEFFSEGCAPGSKKDSSLCKLCMGSGLNLCEPNNKEGYYGYTGAFRCLVEKGDVAFVKHQTVPQNTGGKNPDPWAKNLNEKDYELLCLDGTRKPVEEYANCHLARAPNHAVVTRKDKEACVHKILRQQQHLFGSNVTDCSGNFCLFRSETKDLLFRDDTVCLAKLHDRNTYEKYLGEEYVKAVGNLRKCSTSSLLEACTFRRP
modifications: Y95F/Y188F mutant
FIG. 3B
  neurogenesis / differentiation (neurite outgrowth): almost equal to that of ApoTf and rec ApoTf at inducing differentiation
